Source: paper PMC4188699
Where “and” joins values, the source holds several entries; their conditions need not be identical. Equal entries are not always repeated.

T1: human CSPα L115R, purified from E. coli (human), Q9H3Z4
T1 chain: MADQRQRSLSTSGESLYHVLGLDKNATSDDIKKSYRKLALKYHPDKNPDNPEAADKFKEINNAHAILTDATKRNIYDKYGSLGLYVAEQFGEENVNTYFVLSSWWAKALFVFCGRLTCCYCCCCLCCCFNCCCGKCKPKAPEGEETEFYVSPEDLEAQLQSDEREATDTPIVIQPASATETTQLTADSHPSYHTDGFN


What was measured:
[1] = target: T1, human CSPα L115R, purified from E. coli …; assay: SDS-PAGE of SDS-resistant oligomers; details: remark: other sources report otherwise
Q9H3Z4 = assay: SDS-PAGE of SDS-resistant oligomers; details: other: SDS-PAGE of SDS-resistant oligomers

Row | Binder | stoichiometry N [1] | HMW oligomers, fold versus WT (Q9H3Z4)
1 | human CSPα L115R, purified from E. coli, Q9H3Z4 1-198 (natural protein) MADQRQRSLSTSGESLYHVLGLDKNATSDDIKKSYRKLALKYHPDKNPDNPEAADKFKEINNAHAILTDATKRNIYDKYGSLGLYVAEQFGEENVNTYFVLSSWWAKALFVFCGRLTCCYCCCCLCCCFNCCCGKCKPKAPEGEETEFYVSPEDLEAQLQSDEREATDTPIVIQPASATETTQLTADSHPSYHTDGFN | 2 and 4 | 
2 | human CSPα L115R, purified from E. coli (protein) MADQRQRSLSTSGESLYHVLGLDKNATSDDIKKSYRKLALKYHPDKNPDNPEAADKFKEINNAHAILTDATKRNIYDKYGSLGLYVAEQFGEENVNTYFVLSSWWAKALFVFCGRLTCCYCCCCLCCCFNCCCGKCKPKAPEGEETEFYVSPEDLEAQLQSDEREATDTPIVIQPASATETTQLTADSHPSYHTDGFN |  | 58.9 ± 5.9 fold versus WT
3 | human CSPα L116Δ, purified from E. coli (protein) MADQRQRSLSTSGESLYHVLGLDKNATSDDIKKSYRKLALKYHPDKNPDNPEAADKFKEINNAHAILTDATKRNIYDKYGSLGLYVAEQFGEENVNTYFVLSSWWAKALFVFCGLTCCYCCCCLCCCFNCCCGKCKPKAPEGEETEFYVSPEDLEAQLQSDEREATDTPIVIQPASATETTQLTADSHPSYHTDGFN |  | 13.2 ± 3.9 fold versus WT
